Results published in the DeepSol protein solubility set.

test: soluble on expression in E. coli; label from the status in PepcDB or PDB records

| Sequence | soluble on expression in E. coli |
| --- | --- |
| MTNDNSGIWVLGYGSLIYKPPSHYTHRIPAIIHGFARRFWQSSTDHRGTPANPGRVATLIPYEDIIRQTAFLKNVNLYSESAPIQDPDDLVTIGVVYYIPPEHAQEVREYLNVREQNGYTLHEVEVHLETNREHEAELGEALEQLPRHNKSGKRVLLTSVYIGTIDNEAFVGPETVDETAKVIAVSHGPSGSNYEYLAKLEQALAQMPIMKERGRITDHYLTALLETVNKYR | soluble |
| MTNDYQQLNYLVETDDEADIIIANLVKQLNELKEILLSLDNQDLEINQVNHRTTVHNTSSNTSNNSTSNNIADGNYNSNFFHNFSKETLQTQAKRGFLLLERCSLVGLQQLELEYLNVLGRSFESHQDKINFLVNLRDLTNDHLLDTEKIVSTLEQIFNVIGGTEYTPILNSFFNQSLNDPDPIQREIGLKQFVANLRQRFKTLLQKTNNSIQQLEAEIQIPTTHIKSDEVMFGPPDMNERLVLNDSETDAILRSIEAELESALQNKKQVVVTAVPPIAANLATDSISQETLEHNLNNTETVNTTTVTVTSASETQVRKPQISLRPIFQGNFPKRLSREDIQRYAHQLQELEQSNEG | soluble |
| MTNEKGLDKGYELVAKMHEVFGHPVTNTPTKLTEERAKIRASFMQEELEEFLEATTVEDQYDALIDLIYFAFGTFAEMGVRPDKGFEIVNNANMAKLFPDGKPRFREGDGKILKPEGWQAPEPQLRAEIERQRQEAEKNC | soluble |
| MTNNSTKVCVLLATYNGTKWCLDQVKSILNQEDVNLEVFVSDDLSSDSTTDLLALLNDSRIHILASSYKFGSACQNFFRLVRDVDFSEYDYIAFADQDDLWNPNKLSYSIEQLNAHCADAFSSNVTAFWPDGRARLIVKDQPQREWDFLFESAGPGCTFVLTKKLACNLANFLHNNYEKTKGVALHDWFTYAFARSNSYSWWIDSQPTMMYRQHESNEFGVNSGVTAALSRFRKTSNGWYRNQVILIGDLVGAEDSWPIKRMRRFSLLDRMLLLFNVFAFRRSFRDRIALFFLLLLPQKKLEHHHHHH | soluble |
| MTPDVLFESLWQDYIQRLCPSAAKVHQLLQEDEALINDHIALRTFNVEPLGIETLAKPFLAAGYKACGDYVFESKKLVAKHYEHPDPKQPKVFISELKVEECSPDLQDIVAKLASQVDAEKLSGSAFLHGGRLWDLSFADYQTLAKESEYASWLAAHGYGANHFTVSVNQLNQHDEVKQVNDHLRQAGFVINESGGEVKGSPEVLLEQSSTMADKVPVTFEEGLEIIPGGFYEFAKRYPMENGELYPGFVAASADKIFESTNGLEHHHHHH | soluble |
| MTPISGRCEMAEVTNIPNPGHTSSWYAASANVKSVRPTLEGALEADVCIIGGGFTGISAALELSERGYAVIVLEGVRVGFGASGRNGGQIVNGYSRDLETIARRYGHEKAVKLGEMSLEGGTIIRSRVAKYGIDCDLVDGGFFAAFTPKQIREMEAHKAHWEKHGHGGLEMVSEADVGQYVKTNRYAGGMIDRFGGHIHPLNLVQGEAAAAESLGARIFENSRVIAVEQGANPIVRTAMGSVKAKYVLVCGNAYLGTLLPEIGERMMPVSSQVMATEPLDADLIEALLPANYCVEDANYILDYYRRTSDNRLLYGGGIGYGGSDPADLTGVIRPNMLKTFPQLEKTKIEFAWSGNFALTLTRIPHMGRLSDNIYFSHGDSGHGVTTTHLLGKILGEAVAGHAERFDIWSSLPNYPFPGGKTFRVPLTMLGAWWYGLRDKLGLLEHHHHHH | not soluble |
| MTPKRALISLTSYHGPFYKDGAKTGVFVVEILRSFDTFEKHGFEVDFVSETGGFGWDEHYLPKSFIGGEDKMNFETKNSAFNKALARIKTANEVNASDYKVFFASAGHGALFDYPKAKNLQDIASKIYANGGVIAAICHGPLLFDGLIDIKTTRPLIEGKAITGFPLEGEIALGVDDILRSRKLTTVERVANKNGAKYLAPIHPWDDYSITDGKLVTGVNANSSYSTTIRAINALYSVEHHHHH | soluble |
| MTPLERYQADLKRPDFFHDSAQENAVRHLQRLYEDLVAAHDSKPGLFGKLFGKKEPTLVKGLYFWGGVGRGKTYLVDTFFEALPFQDKVRTHFHRFMKRVHEEMKTLKGERNPLTIIAKRFSDEARVICFDEFFVSDITDAMILGTLMEELFKNGVTLVATSNIVPDGLYKDGLQRARFLPAIALIKQNTDIVNVDSGVDYRLRHLEQAELFHFPLNDAAQESMRKSFKALTPDCAETVENDVLMIENREIRALRTCDDVAWFDFRELCDGPRSQNDYIELGKIFHAVLLSGVEQMDVSTDDIARRFINMVDEFYDRNVKLIISAEVELKDLYTGGRLMFEFQRTLSRLLEMQSHEFLSRAHRP | not soluble |
| MTPLGPASSLPQSFLLKCLEQVRKIQGDGAALQEKLCATYKLCHPEELVLLGHSLGIPWAPLSSCPSQALQLAGCLSQLHSGLFLYQGLLQALEGISPELGPTLDTLQLDVADFATTIWQQMEELGMAPALQPTQGAMPAFASAFQRRAGGVLVASHLQSFLEVSYRVLRHLAQP | soluble |
| MTPTLETKYVFTITARIGDVTSAGEIGTGVRRIIPILGGEVKGEGISGQVLPFGADFQIIRPNELIELEAKYAFETDDGAVVYVENVGIRFGPVELLRKLKRGEPVDPKVIYFRTRPRFETGHPNYQWLMQYLFVGSAARHADRVVIDVHQVL | soluble |
| MTPTPLHSITPFSMLDFPSMLSCILWFSGCNLACSYCYNPEFLKESGKIDLEGLLSFLRSRVGLLEGVVFSGGEATLFAGLPLWMEEVRSLGFKIKLDTNGTNPAMLKELLQKGYLDYVAMDFKGKEERFGMITGREFYGRFLESLEILLSSSIPFEIRTTVHSYLLQEEDIAEMAALLKERG | not soluble |
| MTQEYQLRILPEIAANEQRLKEYISKEKGINLRNITATRILKRSIDARQRTIFVNLKVRAYINEMPKEDEFERTIYNNVEGKPQVIVVGAGPGGLFAALRLIELGLRPIIVERGKDVRERKKDLAQISREHTVDPESNYSFGEGGAGAYSDGKLYTRSKKRGNIDKILNVFCQHGASAAILADAHPHIGTDKLPRVIENMRNTIIECGGEVHFQTRMDALIIENNEIKGIETNTGKTFLGPVILATGHSARDVYRWLAANGVTIEAKGIAVGVRLEHPAMLIDQIQYHNKNGRGKYLPAAEYSFVTQAEGRGVYSFCMCPGGFIVPAASGPEQVVVNGMSPSNRGSRWSNSGMVVEIQPEDFISGELKMESGELAAQQNAQLLAINPLLSNSQLSTLKTQLTPLHFQEELERQCWLQGGRRQTAPAQRMLDFTRKKLSFDLPESSYSPGLISSPLHFWMPDFISKRLSLGFQQFGRTSHGFLTNEAVMIGVETRTSSPVRIVRDKETLQHVTVRGLFPCGEGAGYAGGIVSAGVDGERCAEAVANYINHLEHHHHHH | not soluble |
| MTQLATICYIDNGDSLLLLHRNKKENDVHKGKWISVGGKLEAGETPDECARREILEETHLTVTEMAFKGIITFPEFTPGHDWYTYVFKVTGFEGDLISDEESREGTLEWVPYDQVLEKPTWEGDYDIFKWILEDRSFFSAKFTYDQNNQLMDKSVTFY | not soluble |
| MTQQLVKKGQQISLKIKRLGINGEGIGYYKKLIIFVPGALPKEEVTATITNVTPKFAEGTLQSVKKAAKDRVVPPCPVYETCGGCQLQHLAYKAQLDFKKDLLKQALNKFKPANYQNYELRKTIGMDNPWNYRNKAQFQLRQIDGQVEAGLYQADSHQLVPIDNCLVQQPATTKVMNTLVDLLNDFQLPIYDERKNSGIFRTLMVRVGIQTGEVQVVFITQSQKFPQKEKMVRAINEQLPEVVSIMQNVQNKKTSLVMGDDTLHLWGKESIEEHINDVVFDLSPRAFFQLNPEQTEVLYNEGIKALDLQPNETVVDAYCGVGTIGLSLAKQAHQVRGMDTIPAAIDDARFNAKRLGVTNTHYAVGTAEDLLPKWFKEGFKPDAIVVDPPRTGLDRKLLTALLKQPPKKMVYISCNVSTLARDLVQLAKVYQVDYLQSVDMFPQTARCEVVVKLTRK | not soluble |
| MTQRDTGRLDAIVLAAGRGVRFGGGKLTALLDGDPLVAAALLTAFLAPARRVVVAVGPEPDVRQAVEATATRLLARERLVLVPIDDPSAGMGASLAAAARSLPGDTDGVFVFLGDMPRIDPATPRHLAAALRDPGDIVAPTYLGRRGHPVLFGARWAPVLGALSGDEGARAIVDKAGESLVLVPVDDPGVHLDVDRPSDLARVQTDRRTLLEHHHHHH | soluble |
| MTQSNPFQQYGITSGLAAAAAAKASVLAAMGTISDYVGVPTPIGLRIEVKVEMMKQIDARSGIAAVRKFSGDNPDTLNGALFESRAVIRDDGLINIFAGEGIGVAVSDGLPVRRGDPAINPVARMMIENAVREVSGSAGFDVYISVPGGEDLARDTMNPRVGISGGISILGTTGIEEPVSGPDYEAHIEYLLQTGRCVSTVAVMCPGNTAMRFAESYLRLHPASFILTGDRIGSAIEMAIEKGYREIVVFGLPGKLVKMAAGVMNTHSRIADARFETIAAYAALNGADRDTISKILSSNTVESAFAVLRSIGLLDSVAGAIASRIVERLRSPVWQIRRILLRHDRFRRQAIRVSPVAGHIETGE | not soluble |
| MTQVTVKELAQVVDTPVERLLLQMRDAGLPHTSAEQVVTDSEKQALLTHLKGSHGDRASEPRKITLQRKTTTTLKVGGSKTVSVEVRKKKTYVKRSPDEIEAERQRELEEQRAAEEAERLKAEEAAARQRAEEEARKAEEAARAKAAQEAAATAGAEPAVVADVAVAEPVAKPAAVEERKKEEPRRVPKRDEDDDRRDRKHTQHRPSVKEKEKVPAPRVAPRSTDEESDGYRRGGRGGKSKLKKRNQHGFQNPTGPIVREVNIGETITVAELAAQMSVKGAEVVKFMFKMGSPVTINQVLDQETAQLVAEELGHKVKLVSENALEEQLAESLKF | not soluble |
| MTRLLDATWEKELLAASARLSQAQEENFLDLVDAAEGRIDETIARVLLRTFSAKDDYGTQERVVSVLSTGADQVVIDAIVEEMPRLALEAPEWAQTLLGTEVEFRPDLTARALSQAPTICRIAAENILKNEDFQSQYPNAALVLGQLDA | not soluble |
| MTRLPKLAVFDLDYTLWPFWVDTHVDPPFHKSSDGTVRDRRGQNIQLYPEVPEVLGRLQSLGVPVAAASRTSEIQGANQLLELFDLGKYFIQREIYPGSKVTHFERLHHKTGVPFSQMVFFDDENRNIIDVGRLGVTCIHIRDGMSLQTLTQGLETFAKAQAGL | soluble |
| MTRQHSTQPDPKLDLVLERTIDVPPALVWQAWTQPEHIKHWLTPAPWQTVRCDVDLRPGGRFRFVMRSPEGEEHTHDCCYLEIVEGSRLVWTNALLPGFRPAGGGGDVPAFTAVIRIEPHDQGTRYTATAMHGTQAGCRQHSDMGFHDGWGAALDQLVAHARNMQQASLEHHHHHH | soluble |
| MTSEQNIQTFRDFLTQYNLVAEQCFNSCVNEFGSRTVSGKEESCANNCLDKFLKMTQRVSQRFQEHQLLNAQANGAAIKVENGGKINKIQ | not soluble |
| MTSIQQRDAQSVLAAIDNLLPEIRDRAQATEDLRRLPDETVKALDDVGFFTLLQPQQWGGLQCDPALFFEATRRLASVCGSTGWVSSIVGVHNWHLALFDQRAQEEVWGEDPSTRISSSYAPMGAGVVVDGGYLVNGSWNWSSGCDHASWTFVGGPVIKDGRPVDFGSFLIPRSEYEIKDVWYVVGLRGTGSNTLVVKDVFVPRHRFLSYKAMNDHTAGGLATNSAPVYKMPWGTMHPTTISAPIVGMAYGAYAAHVEHQGKRVRAAFAGEKAKDDPFAKVRIAEAASDIDAAWRQLIGNVSDEYALLAAGKEIPFELRARARRDQVRATGRSIASIDRLFEASGATALSNEAPIQRFWRDAHAGRVHAANDPERAYVIFGNHEFGLPPGDTMV | soluble |
